From article PMC4653696 (The Journal of Biological Chemistry, 2015)

Experiments:
Test in all cases: FRET or BRET; 25 nM donor (AF555)-labelled octamers titrated with acceptor (AF647)-labelled octamers, serial dilutions from 100 nM; 45 mM KCl, 50 mM Tris-HCl pH 8.0; room temperature, 1 h equilibration; triplicate; PCA and curve fit; apparent Kd of end-to-end association of rods
[1] = target: T1, Cdc11(E294C)-capped, otherwise Cys-less septin hetero-octamer (Cdc11-Cdc12-Cdc3-Cdc10-Cdc10-Cdc3-Cdc12-Cdc11) (S. cerevisiae, UniProt P32458 1-415; P32468 1-407; P32457 1-520; P25342 1-322, C43F | C137A | C138A | E294C | C40A | C278S | C124V | C253V | C279V | C266S, Alexa Fluor 555 maleimide (donor) or Alexa Fluor 647 maleimide (acceptor) on C294 (E294C); 0.7-0.8 dye molecules per subunit); details: both partners purified
T1 construct: intact CTE (residues 303-415) restored; Cdc12, S. cerevisiae mitotic septin, Cys-less variant; Cdc3, S. cerevisiae mitotic septin, Cys-less variant; Cdc10, S. cerevisiae mitotic septin, Cys-less variant; The same preparation was labelled separately with donor (AF555) or acceptor (AF647); both are written as this one molecule; also called Cdc11^AF555; Cdc11^AF647; source: E. coli NiCo21 (DE3), …

[2] = target: T2, Shs1(E344C)-capped, otherwise Cys-less septin hetero-octamer (Shs1-Cdc12-Cdc3-Cdc10-Cdc10-Cdc3-Cdc12-Shs1) (S. cerevisiae, UniProt Q07657 1-551; P32468 1-407; P32457 1-520; P25342 1-322, C29V | C148S | E344C | C40A | C278S | C124V | C253V | C279V | C266S, Alexa Fluor 555 maleimide (donor) or Alexa Fluor 647 maleimide (acceptor) on C344 (E344C)); details: both partners purified
T2 construct: Cdc12, S. cerevisiae mitotic septin, Cys-less variant; Cdc3, S. cerevisiae mitotic septin, Cys-less variant; Cdc10, S. cerevisiae mitotic septin, Cys-less variant; Donor- and acceptor-labelled preparations are written as this one molecule; also called Shs1^AF555; Shs1^AF647; source: E. coli NiCo21 (DE3), subunits co-expressed, purified (IMAC, chitin-agarose flow-through, SEC), maleimide …

[3] = target: the molecule itself
[4] = target: T3, Shs1(Δ2–18/Δα0 E344C)-capped, otherwise Cys-less septin hetero-octamer (S. cerevisiae, UniProt Q07657 1-551; P32468 1-407; P32457 1-520; P25342 1-322, Δ2–18 | C29V | C148S | E344C | C40A | C278S | C124V | C253V | C279V | C266S, Alexa Fluor 555 maleimide (donor) on C344 (E344C)); details: both partners purified
T3 construct: Cdc12, S. cerevisiae mitotic septin, Cys-less variant; Cdc3, S. cerevisiae mitotic septin, Cys-less variant; Cdc10, S. cerevisiae mitotic septin, Cys-less variant; also called Shs1 Δα0^AF555; Shs1(Δα0) complexes; source: E. coli NiCo21 (DE3), subunits co-expressed, purified (IMAC, chitin-agarose flow-through, SEC), maleimide dye-labelled; not shown: His6, N-terminal, kept; copies: 2 + 2 + 2 + 2

[5] = target: T1, Cdc11(E294C)-capped, otherwise Cys-less …; details: both partners purified; remark: listed apart in the source

T3 sequence (Q07657 other isoform, or with tags, fused parts or gaps with the stated changes): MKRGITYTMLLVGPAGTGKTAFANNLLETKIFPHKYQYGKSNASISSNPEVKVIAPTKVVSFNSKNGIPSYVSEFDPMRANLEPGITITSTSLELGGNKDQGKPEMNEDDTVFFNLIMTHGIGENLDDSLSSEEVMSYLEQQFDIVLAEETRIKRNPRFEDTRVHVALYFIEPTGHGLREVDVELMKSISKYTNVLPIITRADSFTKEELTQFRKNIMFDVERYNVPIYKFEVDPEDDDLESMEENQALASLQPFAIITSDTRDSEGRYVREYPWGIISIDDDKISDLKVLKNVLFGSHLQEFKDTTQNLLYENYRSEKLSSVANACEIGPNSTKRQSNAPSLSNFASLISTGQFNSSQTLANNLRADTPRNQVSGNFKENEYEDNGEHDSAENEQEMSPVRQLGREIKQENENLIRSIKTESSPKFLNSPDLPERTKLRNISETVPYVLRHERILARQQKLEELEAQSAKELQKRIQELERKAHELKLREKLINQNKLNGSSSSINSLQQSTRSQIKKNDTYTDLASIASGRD

Row | Binder | Kd [1] [nM] | Kd [2] [nM] | Kd [3] [nM] | Kd [4] [nM] | Kd [5] [nM]
1 | Shs1(E344C ΔCTE)-capped, otherwise Cys-less septin hetero-octamer (complex, S. cerevisiae, Alexa Fluor 555 maleimide (donor) on C344 (E344C), Cdc12, S. cerevisiae mitotic septin, Cys-less variant; Cdc3, S. cerevisiae mitotic septin, Cys-less variant; Cdc10, S. cerevisiae mitotic septin, Cys-less variant; also called Shs1 ΔCTE^AF555; source: E. coli NiCo21 (DE3), subunits co-expressed, purified (IMAC, chitin-agarose flow-through, SEC), maleimide dye-labelled; not shown: His6, N-terminal, kept; copies: 2 + 2 + 2 + 2) chain 1: MSTASTPPINLFRRKKEHKRGITYTMLLVGPAGTGKTAFANNLLETKIFPHKYQYGKSNASISSNPEVKVIAPTKVVSFNSKNGIPSYVSEFDPMRANLEPGITITSTSLELGGNKDQGKPEMNEDDTVFFNLIMTHGIGENLDDSLSSEEVMSYLEQQFDIVLAEETRIKRNPRFEDTRVHVALYFIEPTGHGLREVDVELMKSISKYTNVLPIITRADSFTKEELTQFRKNIMFDVERYNVPIYKFEVDPEDDDLESMEENQALASLQPFAIITSDTRDSEGRYVREYPWGIISIDDDKISDLKVLKNVLFGSHLQEFKDTTQNLLYENYRSEKLSSVANACEIGP chain 2: MSAATATAAPVPPPVGISNLPNQRYKIVNEEGGTFTVMLAGESGLGKTTFINTLFQTVLKRADGQQHRQEPIRKTVEIDITRALLEEKHFELRVNVIDTPGFGDNVNNNKAWQPLVDFIDDQHDSYMRQEQQPYRTKKFDLRVHAVLYFIRPTGHGLKPIDIETMKRLSTRANLIPVIAKADTLTAQELQQFKSRIRQVIEAQEIRIFTPPLDADSKEDAKSGSNPDSAAVEHARQLIEAMPFAIVGSEKKFDNGQGTQVVARKYPWGLVEIENDSHSDFRKLRALLLRTYLLDLISTTQEMHYETYRRLRLEGHENTGEGNEDFTLPAIAPARKLSHNPRYKEEENALKKYFTDQVKAEEQRFRQWEQNIVNERIRLNGDLEEIQGKVKKLEEQVKSLQVKKSHLK chain 3: MSLKEEQVSIKQDPEQEERQHDQFNDVQIKQESQDHDGVDSQYTNGTQNDDSERFEAAESDVKVEPGLGMGITSSQSEKGQVLPDQPEIKFIRRQINGYVGFANLPKQWHRRSIKNGFSFNLLVVGPDGIGKTTLMKTLFNNDDIEANLVKDYEEELANDQEEEEGQGEGHENQSQEQRHKVKIKSYESVIEENGVKLNLNVIDTEGFGDFLNNDQKSWDPIIKEIDSRFDQYLDAENKINRHSINDKRIHAVLYFIEPTGHYLKPLDLKFMQSVYEKVNLIPVIAKSDILTDEEILSFKKTIMNQLIQSNIELFKPPIYSNDDAENSHLSERLFSSLPYAVIGSNDIVENYSGNQVRGRSYPWGVIEVDNDNHSDFNLLKNLLIKQFMEELKERTSKILYENYRSSKLAKLGIKQDNSVFKEFDPISKQQEEKTLHEAKLAKLEIEMKTVFQQKVSEKEKKLQKSETELFARHKEMKEKLTKQLKALEDKKKQLELSINSASPNVNHSPVPTKKKGFLR chain 4: MDPLSSVQPASYVGFDTITNQIEHRLLKKGFQFNIMVVGQSGLGKSTLINTLFASHLIDSATGDDISALPVTKTTEMKISTHTLVEDRVRLNINVIDTPGFGDFIDNSKAWEPIVKYIKEQHSQYLRKELTAQRERFITDTRVHAILYFLQPNGKELSRLDVEALKRLTEIANVIPVIGKSDTLTLDERTEFRELIQNEFEKYNFKIYPYDSEELTDEELELNRSVRSIIPFAVVGSENEIEINGETFRGRKTRWSAINVEDINQSDFVYLREFLIRTHLQDLIETTSYIHYEGFRARQLIALKENANSRSSAHMSSNAIQR | 30.4 |  |  |  | 
2 | Cdc11(Δα0 E294C)-capped, otherwise Cys-less septin hetero-octamer (complex, S. cerevisiae, Alexa Fluor 555 maleimide (donor) or Alexa Fluor 647 maleimide (acceptor) on C294 (E294C), Cdc12, S. cerevisiae mitotic septin, Cys-less variant; Cdc3, S. cerevisiae mitotic septin, Cys-less variant; Cdc10, S. cerevisiae mitotic septin, Cys-less variant; also called Cdc11 Δα0^AF555; Cdc11 Δα0^AF647; source: E. coli NiCo21 (DE3), subunits co-expressed, purified (IMAC, chitin-agarose flow-through, SEC), maleimide dye-labelled; not shown: His6, N-terminal, kept; copies: 2 + 2 + 2 + 2) chain 1: MRGITFTVMIVGQSGSGRSTFINTLFGQQVVDTSTTILLPTDTSTEIDLQLREETVELEDDEGVKIQLNIIDTPGFGDSLDNSPSFEIISDYIRHQYDEILLEESRVRRNPRFKDGRVHAALYLINPTGHGLKEIDVEFIRQLGSLVNIIPVISKSDSLTRDELKLNKKLIMEDIDRWNLPIYNFPFDEDEISDEDYETNMYLRTLLPFAIIGSNEVYEMGGDVGTIRGRKYPWGILDVEDSSISDFVILRNALLISHLHDLKNYTHEILYERYRTCALSGESVAAESIRPNLTKLNGSSSSSTTTRRNTNPFKQSNNINNDVLNPASDMHGQSTGENNETYMTREEQIRLEEERLKAFEERVQQELLLKRQELLQREKELREIEARLEKEAKIKQEE chain 2: MSAATATAAPVPPPVGISNLPNQRYKIVNEEGGTFTVMLAGESGLGKTTFINTLFQTVLKRADGQQHRQEPIRKTVEIDITRALLEEKHFELRVNVIDTPGFGDNVNNNKAWQPLVDFIDDQHDSYMRQEQQPYRTKKFDLRVHAVLYFIRPTGHGLKPIDIETMKRLSTRANLIPVIAKADTLTAQELQQFKSRIRQVIEAQEIRIFTPPLDADSKEDAKSGSNPDSAAVEHARQLIEAMPFAIVGSEKKFDNGQGTQVVARKYPWGLVEIENDSHSDFRKLRALLLRTYLLDLISTTQEMHYETYRRLRLEGHENTGEGNEDFTLPAIAPARKLSHNPRYKEEENALKKYFTDQVKAEEQRFRQWEQNIVNERIRLNGDLEEIQGKVKKLEEQVKSLQVKKSHLK chain 3: MSLKEEQVSIKQDPEQEERQHDQFNDVQIKQESQDHDGVDSQYTNGTQNDDSERFEAAESDVKVEPGLGMGITSSQSEKGQVLPDQPEIKFIRRQINGYVGFANLPKQWHRRSIKNGFSFNLLVVGPDGIGKTTLMKTLFNNDDIEANLVKDYEEELANDQEEEEGQGEGHENQSQEQRHKVKIKSYESVIEENGVKLNLNVIDTEGFGDFLNNDQKSWDPIIKEIDSRFDQYLDAENKINRHSINDKRIHAVLYFIEPTGHYLKPLDLKFMQSVYEKVNLIPVIAKSDILTDEEILSFKKTIMNQLIQSNIELFKPPIYSNDDAENSHLSERLFSSLPYAVIGSNDIVENYSGNQVRGRSYPWGVIEVDNDNHSDFNLLKNLLIKQFMEELKERTSKILYENYRSSKLAKLGIKQDNSVFKEFDPISKQQEEKTLHEAKLAKLEIEMKTVFQQKVSEKEKKLQKSETELFARHKEMKEKLTKQLKALEDKKKQLELSINSASPNVNHSPVPTKKKGFLR chain 4: MDPLSSVQPASYVGFDTITNQIEHRLLKKGFQFNIMVVGQSGLGKSTLINTLFASHLIDSATGDDISALPVTKTTEMKISTHTLVEDRVRLNINVIDTPGFGDFIDNSKAWEPIVKYIKEQHSQYLRKELTAQRERFITDTRVHAILYFLQPNGKELSRLDVEALKRLTEIANVIPVIGKSDTLTLDERTEFRELIQNEFEKYNFKIYPYDSEELTDEELELNRSVRSIIPFAVVGSENEIEINGETFRGRKTRWSAINVEDINQSDFVYLREFLIRTHLQDLIETTSYIHYEGFRARQLIALKENANSRSSAHMSSNAIQR |  | 8.13 | 33.2 | 9.89 | 19.5
